Measurements: PMC8571081

Columns and labels:
[1] = biological target: Recombinant mouse IL-12Rβ2-Fc chimera protein (mouse) (UniProt P97378); experiment: SPR; IL-23R-Fc and IL-12Rβ2-Fc captured on a Protein A chip (~150 RU); HIL-12 (0.3-5 nM) or HIL-23 (15-1000 nM) variants injected at 30 μl/min; 25 °C, PBS pH 7.4, 0.05% P20; multi-cycle; 1:1 binding model; Biacore X100
[2] = biological target: Recombinant mouse IL-23R-Fc chimera protein (mouse) (UniProt Q8K4B4); experiment: as above
Sequence of UniProt Q8K4B4 (Q8K4B4 24-374, change not shown): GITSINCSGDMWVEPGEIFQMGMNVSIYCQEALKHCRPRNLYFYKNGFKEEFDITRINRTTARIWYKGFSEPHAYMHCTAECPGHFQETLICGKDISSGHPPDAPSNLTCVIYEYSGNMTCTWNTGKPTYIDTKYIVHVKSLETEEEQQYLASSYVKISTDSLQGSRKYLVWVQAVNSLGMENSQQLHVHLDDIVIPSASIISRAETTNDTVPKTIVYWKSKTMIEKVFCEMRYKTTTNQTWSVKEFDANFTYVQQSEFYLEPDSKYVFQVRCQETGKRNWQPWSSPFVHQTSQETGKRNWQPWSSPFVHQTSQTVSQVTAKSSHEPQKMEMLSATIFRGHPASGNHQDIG

Sequence of UniProt P97378 (P97378 24-637, stated change not applied): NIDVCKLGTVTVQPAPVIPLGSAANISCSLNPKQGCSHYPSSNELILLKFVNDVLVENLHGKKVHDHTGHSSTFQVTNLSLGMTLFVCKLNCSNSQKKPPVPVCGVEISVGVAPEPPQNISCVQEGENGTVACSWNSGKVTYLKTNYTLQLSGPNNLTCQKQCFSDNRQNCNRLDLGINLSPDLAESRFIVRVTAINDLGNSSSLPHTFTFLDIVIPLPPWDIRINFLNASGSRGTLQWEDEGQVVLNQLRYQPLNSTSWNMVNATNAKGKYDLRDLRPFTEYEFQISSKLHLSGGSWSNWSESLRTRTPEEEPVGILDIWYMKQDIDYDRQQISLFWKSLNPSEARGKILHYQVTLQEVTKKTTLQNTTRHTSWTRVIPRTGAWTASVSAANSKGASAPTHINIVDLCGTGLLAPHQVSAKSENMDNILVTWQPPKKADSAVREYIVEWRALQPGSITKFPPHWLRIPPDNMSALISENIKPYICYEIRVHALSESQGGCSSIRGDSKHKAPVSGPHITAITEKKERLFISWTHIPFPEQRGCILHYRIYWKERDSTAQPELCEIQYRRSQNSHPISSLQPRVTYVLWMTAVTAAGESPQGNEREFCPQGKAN

Row | Kd [1] | koff [1] | kon [1] | Kd [2] | koff [2] | kon [2] | Substance
1 | 0.84 nM | 0.0027 s⁻¹ | 3.2e+06 M⁻¹ s⁻¹ |  |  |  | HIL-12D36K/W37K/T38K, purified with Twin-Strep-tag (ligand)
2 |  |  |  | 57 nM | 0.0011 s⁻¹ | 19000 M⁻¹ s⁻¹ | HIL-23D36K/W37K/T38K, purified with Twin-Strep-tag (from UniProt P43432 23-335) (ligand)
3 | 0.987 nM | 0.0019 s⁻¹ | 1.9e+06 M⁻¹ s⁻¹ |  |  |  | murine Hyper-IL-12 (HIL-12), purified with Twin-Strep-tag (ligand)
4 |  |  |  | 40 nM | 0.0012 s⁻¹ | 30000 M⁻¹ s⁻¹ | murine Hyper-IL-23 (HIL-23), purified with Twin-Strep-tag (from UniProt P43432 23-335) (ligand)
